assay: yeast display, Sf9 membrane polyspecificity reagent, FACS + sequencing; frameworks hold sequencing errors
Summary of the method: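 After 36–48 hours of galactose induction, yeast (Saccharomyces cerevisiae BJ5465) displaying a synthetic nanobody library were stained at 4 °C for 1 hour with 10% biotinylated, detergent-solubilized Sf9 membrane reagent. Streptavidin microbeads enriched the stained cells before FACS sorting into low and high (top ~1%) gates on anti-HA and streptavidin fluorescence. Each clone's polyreactivity label reflects its gate of origin.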

| Sequence | polyreactivity (PSR sort gate) |
| --- | --- |
| QVHLVESGGGLVQAGGSLRLSCAASGFTFRWYAMGGDRQAPGKERALVAAIDSTDITNYADSVKGRFTISRDNAKNTVYLQMNSLKPEDTAVYYCAAELYPALYPFRISGTYGYWGQGTLVTVSS | high polyreactivity |
| QVHLVESGGGLVQAGGSLRLSCAASGFTFRYNAMGWYRQAPGKERELVAAISWSGGSTYYADSVKGRFTISRDNAKNTVYLQMNSLKPEDTAVYYCNVGWGRVYKSRYDYWGQGTQVTVSS | high polyreactivity |
| QVHLVESGGGLVQAGGSLRLSCAASGFTIASYDMGWYRQAPGKERELVAAISKGGGRTYYADSVKGRFTISRDNSKNTVYLQMNSLQPEDTAVYYCAAYAPYPRRAYDYWGQGTQVTVSS | low polyreactivity |
| QVHLVESGGGLVQAGGSLRLSCAASGFTYSPYVMGWSRQAPGKEWELVASISKRGGGTYYADSVKGRFTISRDNAKKTFYLQMNRLKPEDTAVYYCNVVTATAYQGVDYWGQGSQVTVSS | high polyreactivity |
| QVHLVESGGGLVQAGGSLRLSCAASGGIFDPYAMGWYRQAPGKERELVAAITNSGGSTYYADTLKGRFTISRDNAKNTVDLQMNSLKPEDTAVSYCAAEGLYVGYDYWGQGTEVTVSS | low polyreactivity |
| QVHLVESGGGLVQAGGSLRLSCAASGITDWIYAMGWYRQAPGKERELVAAITGRGGSTYYADSVKGRFTISRDKAKNTVYLQMNSLKPEVTAVDYCAAESWYSTYDYWGQGTQVTVSS | high polyreactivity |
| QVHLVESGGGLVQAGGSLRLSCAASGITFATYAMGWYRQAPGKERELVAAISGGGGRTYYADSVKGRFTISRDNAKNSVYLQMNSLKPEDTAVYYCATSQRSSQFYHWGQGTQVTVSS | high polyreactivity |
| QVHLVESGGGLVQAGGSLRLSCAASGITFYVYAMGWYRQAPGKERELVAAINYDSGSTYYADSVKGRFTISRDNAKNTVYLQMISLKPEDTAVYYCATDGVNPFYAYDYWGQGNQVTVSS | low polyreactivity |
| QVHLVESGGGLVQAGGSLRLSCAASGITIWNNAMGWYRQAPGKERELVATISSNGGRTYYADSVKGRFTISLDTAKNTVYFQMNSLKPEDTAVYYCNAARRAYGYNYWGQGTQVTVSS | low polyreactivity |
| QVHLVESGGGLVQAGGSLRLSCAASGLIFRKYAMGWYRQAPGKERELVAAISSGGDTNYADSVKGRFTISRDNAKNTVYLQMNSLKPEDTAVYYCNADRKYWYGIALEYWGQGTQVTVSS | high polyreactivity |
| QVHLVESGGGLVQAGGSLRLSCAASGLTFSSYSMGWYRQAPAKERELVATITSSGGDNTNYADSVKGRFTISRDNAKNTVYLQMNSLKPEDTAVYYFNKEGQQSYRWRMDYWGQGTQVTVSS | low polyreactivity |
| QVHLVESGGGLVQAGGSLRLSCAASGNIFYVYVMGWYRQAPGKERELVAYITSGASTYYSDSVKGRFTISRDNAKNTVYFQMNSLKPEDTAVYYCAAEALGGAGAYSTLYIYDYWGEGTQVTVSS | low polyreactivity |
| QVHLVESGGGLVQAGGSLRLSCAASGNTFDINAMGWYRQAPGKERELVAAISFSGGDTYYADSVKGRFTISRDNAKNTVYLQMNILKPEHTAVYYCAAEVPDTDAYGYWGQGTQVTVSS | low polyreactivity |
| QVHLVESGGGLVQAGGSLRLSCAASGNTFRWYDMGWYRQAPGKERELVAAITSSGSTTYYADSVKGRFTISRDNAKNTVYLQMNSLKPEDTAVFYCAARNYGPYDYWGQGTQVTVSS | low polyreactivity |
| QVHLVESGGGLVQAGGSLRLSCAASGRIFARYAMGWYRQAPGKEREFVASISFRGGSTYYADSVKGRFTISRDNAKNTVYLQMNSLKPEDTAVYYCAAEGYTRAYSGFYWYDYWGQGTQVTVSS | high polyreactivity |
| QVHLVESGGGLVQAGGSLRLSCAASGRIFDDYAMGWYRQAPGKERELVAAISWSGGSTYYADSVKVRFTISRDNAKNTVYLQRNSLKPEDTAVYYCAAPYHYYKRIGYDYWGQGTQVTVSS | low polyreactivity |

| Sequence | polyreactivity (PSR sort gate) |
| --- | --- |
| QVHLVESGGGLVQAGGSLRLSCAASGRIFFYYAMGWYRQAPGKERELVAAISSTGGSTNYADSVKGRFTISRDNAKNTVYLQMNSLKPEDTAVYYCNKDLYYAYDYWGQGTQVTVSS | low polyreactivity |
| QVHLVESGGGLVQAGGSLRLSCAASGRIFGEYAMGWYRQAPGKERELVAAINSCGTSTNYADSVKGRLTFSRDNAKNTVYLQMNSLKPEDTAVYYCNAVGTYRPEYDSWVQGTQVTVSS | low polyreactivity |
| QVHLVESGGGLVQAGGSLRLSCAASGRIFGIYAMGWYRQAPGKERELVALITGGGSTNYADSVKGRFTISRDNAKNTVYLQMNSLKPEDTAVYYCAATVRRIVGNITRYDYWGQGTQVTVSS | low polyreactivity |
| QVHLVESGGGLVQAGGSLRLSCAASGRIFGLYAMGWYRQAPGKERELVASISYNGGSTYYADSVKGRFTISRDNAKNTVYLQMNSLKPEDTAVYYCAASLYYYGVRFGYWGQGTQVTVSS | high polyreactivity |
| QVHLVESGGGLVQAGGSLRLSCAASGRIFKIYAMGWYRQAPGKERELVASISWSGGRTYYADSVKGGFTISRDNAKNTVYVQMNSLKPEDTAVYYCAATFSNSSYIYDFWGQGTHVTVSS | high polyreactivity |
| QVHLVESGGGLVQAGGSLRLSCAASGRIFNSNAMGWYIQEPGKERELAAAISKRGGSTFYADSVKGRFTISRDNGKNTVFLQMKSLKPEYSAVYYCNARRLSTGFDRYDYWGQGTQVTGSS | high polyreactivity |
| QVHLVESGGGLVQAGGSLRLSCAASGRIFPGYAMGWYRQAPGKERELVAAISWIGGDTYYADSVKGRFTISRDNAKNTVYLQMNSLIPEDTAVYYCAARYGRHRVSWYATWRYGYWGQGTQVTVSS | low polyreactivity |
| QVHLVESGGGLVQAGGSLRLSCAASGRIFRVYAMGWYRQAPGKERELVAAIRWSTGSTYYADSVKGRFTISRDIAKNTVYLHMNSLKPEDTAVYYCASYYYSSCSKFDYWGQGTQVTVSS | high polyreactivity |
| QVHLVESGGGLVQAGGSLRLSCAASGRIFTYKAMGWYRQAPGKERELVAAITYRRSSTYYADSVKGRFTISRDNAKNTVYLQMNSLKTEDTAVYYCAAVFSGFYYAYDYWGQGTQVTVSS | high polyreactivity |
| QVHLVESGGGLVQAGGSLRLSCAASGRILPFYAMGWYRQAPGKERELVATISWTSDSTYYADSVKGRFTISRDNAKNTVYLQMNSLKPEDTAVYYCAREYTYTYASTVIYDHWGQGTQVTVSS | low polyreactivity |
| QVHLVESGGGLVQAGGSLRLSCAASGRILVRYAMGWYRQAPGKERELVAAISSSGSSTYYADSVKGRFTISRDNAKNTVYLQMNSLKPEDTAVYYCNKPDVTRGRDVYYWGQGTQVTVSS | low polyreactivity |
| QVHLVESGGGLVQAGGSLRLSCAASGRIRYYAMGWYRQAPGKERELVAAITSSGGSTYYADSVKGRFTISRDNAKNTVYLQMNSLKPEVTAVYYCIAVASLSGDYWGQGTQVTVSS | high polyreactivity |
| QVHLVESGGGLVQAGGSLRLSCAASGRIYTGNTMVWYRQAPGKEREFVAAISGSGGRTFYADSVKGRFTISRDNEKNTVYLQMNSLKPEDTAVYYCAARRYRSLGSYGTGSFSYNYWGQGTQVTVSS | high polyreactivity |
| QVHLVESGGGLVQAGGSLRLSCAASGRNFGTYAMGWYRQAPGKDRELVADISSSGTSTYYADSVKGRFTISRDNAKNTVYLQMNSLKPEDTAVSYCDVVAIDYAYDYYFRLGYDYWGQGTQVSVSS | low polyreactivity |
| QVHLVESGGGLVQAGGSLRLSCAASGRTFDYNAMGWYRQATGKERELVAAIRFGGGSTYYADSVKGRFTISRDNAKNTVYLQMNSLKPEDTAVYYCNASPLWIGWEIVPVGSSHYDYWGQGTQVTVSS | low polyreactivity |
